From paper PMC3821029

Substrate: CO[C@H]1O[C@H](COS(=O)(=O)O)[C@@H](O[C@@H]2O[C@@H](C(=O)O)[C@@H](O[C@H]3O[C@H](COS(=O)(=O)O)[C@@H](O[C@@H]4O[C@H](C(=O)O)[C@@H](O[C@H]5O[C@H](COS(=O)(=O)O)[C@@H](O)[C@H](O)[C@H]5NS(=O)(=O)O)[C@H](O)[C@H]4O)[C@H](OS(=O)(=O)O)[C@H]3NS(=O)(=O)O)[C@H](O)[C@H]2OS(=O)(=O)O)[C@H](O)[C@H]1NS(=O)(=O)O
Experiment: purified protein, by the assay type
Conditions: pH 5.0

B1: Recombinant human heparanase (Homo sapiens) (protein)
chain 1: KKFKNSTYSRSSVDVLYTFANCSGLDLIFGLNALLRTADLQWNSSNAQLLLDYCSSKGYNISWELGNEPNSFLKKADIFINGSQLGEDFIQLHKLLRKSTFKNAKLYGPDVGQPRRKTAKMLKSFLKAGGEVIDSVTWHHYYLNGRTATKEDFLNPDVLDIFISSVQKVFQVVESTRPGKKVWLGETSSAYGGGAPLLSDTFAAGFMWLDKLGLSARMGIEVVMRQVFFGAGNYHLVDENFDPLPDYWLSLLFKKLVGTKVLMASVQGSKRRKLRVYLHCTNTDNPRYKEGDLTLYAINLHNVTKYLRLPYPFSNKQVDKYLLRPLGPHGLLSKSVQLNGLTLKMVDDQTLPPLMEKPLRPGSSLGLPAFSYSFFVIRNAKVAACI
chain 2: QDVVDLDFFTQEPLHLVSPSFLSVTIDANLATDPRFLILLGSPKLRTLARGLSPAYLRFGGTKTDFLIFDPKKE
- Km: 3.6 ± 0.5 µM
